Measurements from patent publication US10260068B2, “Prophylactic agent and therapeutic agent for fibrodysplasia ossificans progressiva” (Sumitomo Dainippon Pharma Co., Ltd., priority 2014, dated 2019).

B1: TGF-β3: Recombinant Human TGF-beta 3 (R&D Systems) (protein, UniProt P10600 301-412, looked up)
Transforming growth factor …: ALDTNYCFRNLEENCCVRPLYIDFRQDLGWKWVHEPKGYYANFCSGPCPYLRSADTTHSTVLGLYNTLNPEASASPCCVPQDLEPLTILYYVGRTPKVEQLSNMVVKSCKCS
B2: follistatin-like 3: Recombinant Human Follistatin-related Gene Protein/FLRG (R&D Systems) (protein, listed as Homo sapiens)
chain: MRPGAPGPLWPLPWGALAWAVGFVSSMGSGNPAPGGVCWLQQGQEATCSLVLQTDVTRAECCASGNIDTAWSNLTHPGNKINLLGFLGLVHCLPCKDSCDGVECGPGKACRMLGGRPRCECAPDCSGLPARLQVCGSDGATYRDECELRAARCRGHPDLSVMYRGRCRKSCEHVVCPRPQSCVVDQTGSAHCVVCRAAPCPVPSSPGQELCGNNNVTYISSCHMRQATCFLGRSIGVRHAGSCAGTPEEPPGGESAEEEENFV
B3: follistatin: Recombinant Human Follistatin 315 (R&D Systems) (protein)
chain: GNCWLRQAKNGRCQVLYKTELSKEECCSTGRLSTSWTEEDVNDNTLFKWMIFNGGAPNCIPCKETCENVDCGPGKKCRMNKKNKPRCVCAPDCSNITWKGPVCGLDGKTYRNECALLKARCKEQPELEVQYQGRCKKTCRDVFCPGSSTCVVDQTNNAYCVTCNRICPEPASSEQYLCGNDGVTYSSACHLRKATCLLGRSIGLAYEGKCIKAKSCEDIQCTGGKKCLWDFKVGRGRCSLCDELCPDSKSDEPVCASDNATYASECAMKEAACSSGVLLEVKHSGSCNSISEDTEEEEEDEDQDYSFPISSILEW
B4: ACVR2B-Fc chimeric protein: Fusion of positions 19 to 134 of SEQ ID NO: 14 with human antibody Fc region via linker Ile-Glu-Gly-Arg-Met-Asp (protein)
chain: SGRGEAETRECIYYNANWELERTNQSGLERCEGEQDKRLHCYASWRNSSGTIELVKKGCWLDDFNCYDRQECVATEENPQVYFCCCEGNFCNERFTHLPEAGGPEVTYEPPPTAPTIEGRMD
modifications: left off: a dimerising Fc or GST

Experiments:
[1] = system: FOP patient derived cells; assay: Differentiation to chondrocytes (Alcian blue, sulfated glycosaminoglycan assay) of FOP patient derived cells; format: cell-based, human
Experimental: (§1) Mesenchymal stem cell-like cells from a patient iPS cell line and a gene-corrected iPS cell clone were each prepared by the same method as Example 1. The mesenchymal stem cell-like cells were cultured for 6 days under the medium conditions used in the method of Umeda et al. (Sci. Rep., 2012, 2, 455), for differentiation to chondrocytes. During differentiation, 100 ng/mL of human activin A, 100 ng/mL of human BMP-7 or 1 ng/mL of human TGF-β3 (product of R&D Systems, Inc., trade name: Recombinant Human TGF-beta 3) was added and the effect of each factor on differentiation to chondrocytes was examined. The extent of differentiation to chondrocytes was measured with Alcian blue dye and a sulfated glycosaminoglycan assay kit (product of Biocolor, Ltd., trade name: Blyscan Glycosaminoglycan Assay Kit). In FIG. 4, the bar graph indicates the mean values for each treated group, and the error bars represent S.D.

[2] = system: gene-corrected clone derived cells; assay: Differentiation to chondrocytes (sulfated glycosaminoglycan assay) of gene-corrected clone derived cells; format: cell-based, human; settings: 100 ng/mL BMP-7 or 1 ng/mL TGF-β3, 6 days, vs untreated group
Experimental: as §1

[3] = system: FOP patient derived cells; assay: Evaluation of binding inhibitors: chondrocyte differentiation of FOP patient derived cells in copresence of human activin A; format: cell-based; settings: copresence of 30 ng/mL human activin A, 6 days; vs activin-treated group
Experimental: Patient iPS cell line-derived mesenchymal stem cell-like cells were prepared by the same method as Example 1. The mesenchymal stem cell-like cells were cultured for 6 days by the same method as Example 3, for differentiation to chondrocytes. The effect of each factor on differentiation to chondrocytes was examined, with neutralizing antibody for human activin A (product of R&D Systems, Inc., trade name: Human/Mouse/Rat Activin A βA subunit Antibody), follistatin (product of R&D Systems, Inc., trade name: Recombinant Human Follistatin 315 as 30-344), follistatin-like 3 (product of R&D Systems, Inc., trade name: Recombinant Human Follistatin-related Gene Protein/FLRG), ACVR2A-Fc chimeric protein (product of R&D Systems, Inc., trade name: Recombinant Human Activin RIIA Fc Chimera (CHO)), or ACVR2B-Fc chimeric protein (product of R&D Systems, Inc., trade name: Recombinant Human Activin RIIB Fc Chimera), in the copresence of 30 ng/mL of human activin A. The ACVR2A-Fc chimeric protein is a fusion protein in which a polypeptide fragment having the amino acid sequence of positions 20 to 134 of the amino acid sequence listed as SEQ ID NO: 12, and the Fc region of the human-derived antibody, are bonded via a linker sequence (Ile-Glu-Gly-Arg-Met-Asp). The ACVR2B-Fc chimeric protein is a fusion protein in which a polypeptide fragment having the amino acid sequence of positions 19 to 134 of the amino acid sequence listed as SEQ ID NO: 14, and the Fc region of the human-derived antibody, are bonded via a linker sequence (Ile-Glu-Gly-Arg-Met-Asp). The extent of differentiation to chondrocytes was evaluated by Alcian blue staining and sulfated glycosaminoglycan assay, similar to Example 3. In FIG. 6(B), the bar graph indicates the mean values for each treated group, and the error bars represent S.D.

Molecule | difference in cartilage induction between FOP patient derived cells and gene-corrected clone derived cells ([1]; 1 ng/mL TGF-β3, 6 days) | cartilage induction effect compared to the effect exhibited by activin A on FOP patient derived cells ([1]; 100 ng/mL BMP-7 or 1 ng/mL TGF-β3, 6 days) | cartilage induction (sulfated glycosaminoglycan assay) ([1]; FOP patient derived cells, 100 ng/mL activin A, 100 ng/mL BMP-7 or 1 ng/mL TGF-β3, 6 days, vs untreated group) | cartilage induction (sulfated glycosaminoglycan assay) [2] | differentiation of FOP patient derived cells to chondrocytes (Alcian blue staining, sulfated glycosaminoglycan assay) [3]
B1 | no significant difference | weaker | significantly enhanced | significantly enhanced | –
B2 | – | – | – | – | inhibited
B3 | – | – | – | – | inhibited
B4 | – | – | – | – | inhibited
